The results in this text go back to the Immune Epitope Database (IEDB).

For orientation: Kd means the free concentration of one partner at which half of the binding sites on the other are occupied at equilibrium, for simple one-to-one binding. As usually defined, the IC50 is the concentration at which inhibition is half-maximal. A higher IC50 goes with a need for much substance.

In one assay the target is HLA-B*15:01. Kind of assay: IEDB peptide-MHC binding, purified MHC/competitive/radioactivity; filed as Kd, often an IC50 or EC50 that approximates it; ≥ and ≤ were set here for values at or beyond the usual limits of such assays.
The target of assay [1] is HLA-A*02:01. Described as above.
For assay [2], the target named is HLA-A*02:01. Kind of assay: IEDB peptide-MHC binding, purified MHC/competitive/fluorescence; filed as Kd, often an IC50 or EC50 that approximates it; ≥ and ≤ were set here for values at or beyond the usual limits of such assays.
The target of the next assay is HLA-A*01:01. The experiment in a line: IEDB peptide-MHC binding, purified MHC/competitive/radioactivity; filed as Kd, often an IC50 or EC50 that approximates it; ≥ and ≤ were set here for values at or beyond the usual limits of such assays.
For another assay, the target named is HLA-A*30:02. The assay is described as above.
Assay [3] concerns the target HLA-A*31:01. The description is as above.
In a further assay the target is HLA-A*30:01. The description is as above.
The next assay concerns the target HLA-A*11:01. The description is as above. The conditions noted are these: source organism: Vaccinia virus WR.
Assay [4] deals with HLA-A*03:01. The description is as above. To be noted: source organism: Vaccinia virus WR.
Another assay concerns the target HLA-A*68:01. The assay is described as above. The conditions noted are these: source organism: Vaccinia virus WR.
In a further assay the target is HLA-A*33:01. Described as above. The conditions noted are these: source organism: Vaccinia virus WR.
A further assay deals with HLA-A*24:02. Kind of assay: IEDB peptide-MHC binding, purified MHC/competitive/fluorescence; ≥ and ≤ were set here for values at or beyond the usual limits of such assays.
Assay [5] deals with HLA-A*31:01. The experiment in a line: IEDB peptide-MHC binding, purified MHC/direct/fluorescence; filed as Kd, often an IC50 or EC50 that approximates it; ≥ and ≤ were set here for values at or beyond the usual limits of such assays. The conditions noted are these: source organism: Brucella melitensis.
For assay [6], the target named is HLA-A*03:01. Described as above. To be noted: source organism: Brucella melitensis.
A further assay concerns the target HLA-A*26:01. Kind of assay: IEDB peptide-MHC binding, purified MHC/competitive/radioactivity; filed as Kd, often an IC50 or EC50 that approximates it; ≥ and ≤ were set here for values at or beyond the usual limits of such assays.
The target of the next assay is HLA-A*29:02. The assay is described as above. The conditions noted are these: source organism: Mammarenavirus brazilense.
A further assay addresses HLA-A*32:01. Described as above. To be noted: source organism: Mammarenavirus brazilense.
For assay [7], the target named is HLA-A*02:01. The experiment in a line: IEDB peptide-MHC binding, purified MHC/competitive/fluorescence; ≥ and ≤ were set here for values at or beyond the usual limits of such assays.
The next assay deals with HLA-B*08:01. Kind of assay: IEDB peptide-MHC binding, purified MHC/competitive/radioactivity; filed as Kd, often an IC50 or EC50 that approximates it; ≥ and ≤ were set here for values at or beyond the usual limits of such assays. The conditions noted are these: source organism: Dengue virus 1 Singapore/S275/1990.
The target of the next assay is HLA-A*02:06. Described as above. The conditions noted are these: source organism: Homo sapiens.
For the next assay, the target named is HLA-A*02:02. The description is as above. The conditions noted are these: source organism: Homo sapiens.
In the next assay the target is HLA-A*02:03. The assay is described as above. To be noted: source organism: Homo sapiens.
Setting [8] is: source organism: Vaccinia virus WR.
[9] abbreviates: source organism: Dengue virus 4 Philippines/H241/1956.
Setting [10] is: source organism: Dengue virus 2 Jamaica/1409/1983.
Setting [11] is: source organism: Zaire ebolavirus.
Setting [12] is: source organism: Dengue virus 3 Martinique/1243/1999.
The mark [13] stands for this setting: source organism: Mammarenavirus brazilense.

With LVYKKMQSY, the Kd with HLA-B*15:01 (setting [8]) came to 45.7 nM. For the sequence PLGLVDLFV, the Kd with HLA-A*02:01 [1] (source organism: Lassa virus Josiah) worked out at 4170 nM. Turning to VLSPTIGHV, the Kd with HLA-A*02:01 [2] (setting [8]) came to 4 nM. For the sequence KLHSGVDVFY, the values for the Kd with HLA-A*01:01 (setting [9]), with HLA-B*15:01 (setting [9]) and with HLA-A*30:02 (setting [9]) were 2870 nM, 2.76 nM and 12.1 nM, respectively. Take KSKAINVLR: the Kd was found to be 1.1 nM with HLA-A*31:01 [3] (setting [10]) and 103 nM with HLA-A*30:01 (setting [10]).

For MQKFTILEY, the Kd with HLA-A*31:01 [3] (setting [8]) is 174 nM; with HLA-A*11:01 it was 39.8 nM; in the assay with HLA-A*03:01 [4], 470 nM; with HLA-B*15:01 (setting [8]), 10.1 nM; in the assay with HLA-A*68:01, 10800 nM; in the assay with HLA-A*33:01, at least 54500 nM. MVCPNINAF: the Kd in the assay with HLA-B*15:01 (setting [8]) is 22 nM.

Sequence IYRGTTFAE gave an IC50 in the assay with HLA-A*24:02 (setting [11]) of 9880 nM. In the case of AQNALDNLVM, the Kd with HLA-B*15:01 (source organism: Dengue virus 1 Brazil/97-11/1997) was 2.02 nM. As to RVRIPDVAR, the Kd with HLA-A*31:01 [5] worked out at 23.4 nM; in the assay with HLA-A*03:01 [6] it was 293 nM.

TFKKSGAIK: in the assay with HLA-A*30:01 (setting [12]), the Kd is 1200 nM. On to ESRFTPQFL, for which the IC50 with HLA-A*24:02 (setting [11]) amounted to 22400 nM.

Take KLFSDISAI: the Kd with HLA-A*02:01 [2] (source organism: Vaccinia virus) is 2.2 nM. On to SLKDVLVSV, for which the Kd with HLA-A*02:01 [2] (source organism: Horsepox virus) was 3.6 nM.

With EDDRERLKV, the IC50 in the assay with HLA-A*24:02 (source organism: Variola virus) was 16.8 nM. As to CINGVCWTA, the Kd with HLA-A*02:01 [1] (source organism: hepatitis C virus genotype 1a) is 2700 nM. As to VMVMVGATM, in the assay with HLA-B*15:01 (setting [10]), the Kd turned out to be 2.77 nM. As for LMALKLITQF, the Kd in the assay with HLA-B*15:01 (setting [12]) turned out to be 149 nM. Take ISRNKNIFV: the Kd with HLA-A*30:01 (setting [8]) was 7.28 nM. Regarding ETWILRHPGF, the dissociation constant Kd with HLA-A*26:01 (setting [10]) was 1380 nM; in the assay with HLA-A*30:01 (setting [10]) it was 12300 nM. Consider MVLPGAANK, for which the Kd in the assay with HLA-A*30:01 (setting [8]) was determined as 58.9 nM. With KTLHSSVQSY, the dissociation constant Kd with HLA-A*01:01 (setting [13]) is 4920 nM; in the assay with HLA-A*26:01 (setting [13]), at least 36800 nM; with HLA-A*29:02, 6180 nM; with HLA-A*30:02 (setting [13]) it was 73.5 nM; with HLA-A*32:01, 527 nM; with HLA-A*30:01 (setting [13]) it was 573 nM. With RLRGEARKTF, the Kd with HLA-B*15:01 (setting [10]) was 49.3 nM. Turning to TGILQLPRD, the IC50 in the assay with HLA-A*24:02 (setting [11]) is at least 506000 nM; with HLA-A*02:01 [7] (setting [11]), at least 584000 nM. As for ALAWSLQML, the Kd with HLA-A*02:01 [2] (source organism: Escherichia coli O139:H28 str. E24377A) is 3.4 nM.

For ASNIVLDQI, the IC50 with HLA-A*24:02 (setting [8]) was 5240 nM; in the assay with HLA-A*02:01 [7] (setting [8]) it was at least 86200 nM. Take RVRISLIYL: the Kd in the assay with HLA-A*30:01 (setting [8]) was 0.0915 nM. On to CRSCTMPPLR, for which, in the assay with HLA-A*30:01 (setting [9]), the Kd came to 1530 nM. Take MVRLTTQGL: the Kd in the assay with HLA-A*30:01 (source organism: Vaccinia virus Copenhagen) turned out to be 8.32 nM.

Sequence YLKKKNHPL had a Kd with HLA-A*02:01 [2] (source organism: Bacillus cereus G9241) of 6 nM. On to ALHQVFGAIY, for which the values for the Kd in the assay with HLA-B*15:01 (setting [10]) and with HLA-A*30:02 (setting [10]) were 4.38 nM and 71.8 nM, respectively. For IMAVGIVSIL, the Kd is 8.03 nM with HLA-B*15:01 (source organism: Dengue virus 1 Singapore/S275/1990) and 173 nM in the assay with HLA-B*08:01. As to CTREEFISK, the Kd in the assay with HLA-A*30:01 (setting [9]) stood at 21.1 nM.

As to KGKRALAPPV, the Kd with HLA-A*30:01 (setting [9]) worked out at 2.27 nM.

Take DLEDLKDQI: the Kd was at least 78700 nM in the assay with HLA-A*02:06, at least 24300 nM in the assay with HLA-A*02:01 [1] (source organism: Homo sapiens), 16400 nM in the assay with HLA-A*02:02 and 13600 nM in the assay with HLA-A*02:03.
